Experimental data published in EP0951295B1 (THE SCRIPPS RESEARCH INSTITUTE, dated 2010).
One block for each molecule: values may come before it.

Tests used:
[1] = target: integrin αIIbβ3, purified and immobilized on microtiter wells (UniProt P08514); experiment: solid-phase competition: peptide against 1 nM 125I-fibrinogen on immobilized αIIbβ3; mean of duplicates ± SD
[2] = target: integrin αvβ3 (vitronectin receptor), purified and immobilized on microtiter wells (UniProt P06756); experiment: solid-phase competition: peptide against 1 nM 125I-fibrinogen on immobilized αvβ3; mean of duplicates ± SD
[3] = target: integrin αvβ3 (vitronectin receptor), purified and immobilized on microtiter wells (UniProt P06756); experiment: solid-phase receptor binding assay, 125I-MMP-2 on immobilized αvβ3
[4] = target: integrin αIIbβ3, purified and immobilized on microtiter wells (UniProt P08514); experiment: solid-phase receptor binding assay, 125I-MMP-2 on immobilized αIIbβ3
[5] = target: T1, integrin αIIbβ3, purified and immobilized on microtiter wells (UniProt P08514 32-1039; P05106 27-788); experiment: solid-phase competition: peptide against vitronectin (VN) on immobilized αIIbβ3; individual assay
T1 construct: Purified integrin coated at 50 ng per well; also called α11bβ3

[6] = target: T2, integrin αvβ3 (vitronectin receptor), purified and immobilized on microtiter wells (UniProt P06756 31-1048; P05106 27-788); experiment: solid-phase competition: peptide against fibrinogen (FG) on immobilized αvβ3; individual assay
T2 construct: Purified integrin coated at 50 ng per well; also called αvβ3 receptor; vitronectin receptor (αvβ3)

[7] = target: T2, integrin αvβ3 (vitronectin receptor), …; experiment: solid-phase competition: peptide against vitronectin (VN) on immobilized αvβ3; individual assay
[8] = target: T1, integrin αIIbβ3, purified and …; experiment: solid-phase competition: peptide against fibrinogen (FG) on immobilized αIIbβ3; individual assay

IC50 [1]: 100000 nM | IC50 [2]: 885 nM
Molecule: peptide 62185, cyclo(RADfV)

IC50 [1]: 55 nM | IC50 [2]: 395 nM
Molecule: peptide 62179, cyclo(GRGDfL)

IC50 [1]: 525 nM | IC50 [2]: 50 nM
Molecule: peptide 62184, cyclo(RGDfV)

bound cpm [3]: 300 cpm | bound cpm [4]: 10 CPM
Molecule: MMP-2 (matrix metalloproteinase-2) as used in the solid-phase receptor binding assays (enzyme)

IC50 [1]: 260 nM | IC50 [2]: 50 nM
Molecule: peptide 62187, cyclo(RGDFv)

IC50 [5]: 5000 nM | IC50 [8]: 90000 nM | IC50 [6]: > 100000 nM | IC50 [7]: > 100000 nM
B3: peptide 62502, TDVNGDGRHDL (linear, αIIb-derived amino acid residues 296-306) (peptide)
peptide: TDVNGDGRHDL
notes: Linear synthetic peptide

IC50 [5]: > 100000 nM | IC50 [6]: > 100000 nM | IC50 [7]: > 100000 nM
B4: peptide 62503, GVVRNNEALARLS (linear, αv-derived amino acid residues 655-667) (peptide)
peptide: GVVRNNEALARLS
notes: Linear synthetic peptide

Continued, molecule first:

Molecule: peptide 62186, cyclo(RaDFV)
IC50 [1]: 100000 nM | IC50 [2]: 57400 nM

Molecule: peptide 62175, cyclo(ARGDfL)
IC50 [1]: 630 nM | IC50 [2]: 1050 nM

Molecule: peptide 62181, cyclo(GrGDFV)
IC50 [1]: 15000 nM | IC50 [2]: 1960 nM

B1: peptide 62411, TRQVVCDLGNPM (linear, αv-derived amino acid residues 676-687) (peptide)
peptide: TRQVVCDLGNPM
notes: Linear synthetic peptide
IC50 [5]: > 100000 nM | IC50 [6]: > 100000 nM | IC50 [7]: > 100000 nM

B2: peptide 62880, YTAECKPQVTRGDVF (linear, VN-derived amino acid residues 35-49) (peptide)
peptide: YTAECKPQVTRGDVF
notes: Linear synthetic peptide
IC50 [5]: 980 nM | IC50 [8]: 4200 nM | IC50 [6]: < 100 nM | IC50 [7]: 500 nM
